US10005846 (LIFEARC, dated 2018)

T1: human transglutaminase type 2 (TG2) (human, UniProt P21980 1-687)
T1 sequence: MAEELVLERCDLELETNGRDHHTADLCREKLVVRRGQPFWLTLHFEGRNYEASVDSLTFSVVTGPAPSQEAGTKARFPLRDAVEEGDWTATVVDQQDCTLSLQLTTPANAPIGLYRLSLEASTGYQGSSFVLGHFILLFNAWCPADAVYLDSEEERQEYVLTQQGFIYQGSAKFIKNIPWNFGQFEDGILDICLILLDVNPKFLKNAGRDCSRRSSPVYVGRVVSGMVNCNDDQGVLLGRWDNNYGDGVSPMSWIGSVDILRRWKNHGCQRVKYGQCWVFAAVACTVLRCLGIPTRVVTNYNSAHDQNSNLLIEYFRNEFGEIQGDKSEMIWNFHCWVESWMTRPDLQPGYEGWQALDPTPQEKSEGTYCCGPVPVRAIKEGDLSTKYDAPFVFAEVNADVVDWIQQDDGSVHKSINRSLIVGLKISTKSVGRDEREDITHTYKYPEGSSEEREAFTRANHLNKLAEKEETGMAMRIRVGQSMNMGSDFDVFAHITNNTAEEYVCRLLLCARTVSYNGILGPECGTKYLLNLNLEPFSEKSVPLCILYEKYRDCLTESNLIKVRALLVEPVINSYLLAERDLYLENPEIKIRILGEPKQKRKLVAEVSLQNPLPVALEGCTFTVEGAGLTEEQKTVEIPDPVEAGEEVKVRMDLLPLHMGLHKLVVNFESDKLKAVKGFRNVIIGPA

T2: cynomolgus monkey TG2 (cynomolgus monkey, UniProt A0A2K5VXI8 1-687)
T2 construct: Bought recombinant protein; also called cynomogulus monkey TG2; cyano TG2
T2 sequence: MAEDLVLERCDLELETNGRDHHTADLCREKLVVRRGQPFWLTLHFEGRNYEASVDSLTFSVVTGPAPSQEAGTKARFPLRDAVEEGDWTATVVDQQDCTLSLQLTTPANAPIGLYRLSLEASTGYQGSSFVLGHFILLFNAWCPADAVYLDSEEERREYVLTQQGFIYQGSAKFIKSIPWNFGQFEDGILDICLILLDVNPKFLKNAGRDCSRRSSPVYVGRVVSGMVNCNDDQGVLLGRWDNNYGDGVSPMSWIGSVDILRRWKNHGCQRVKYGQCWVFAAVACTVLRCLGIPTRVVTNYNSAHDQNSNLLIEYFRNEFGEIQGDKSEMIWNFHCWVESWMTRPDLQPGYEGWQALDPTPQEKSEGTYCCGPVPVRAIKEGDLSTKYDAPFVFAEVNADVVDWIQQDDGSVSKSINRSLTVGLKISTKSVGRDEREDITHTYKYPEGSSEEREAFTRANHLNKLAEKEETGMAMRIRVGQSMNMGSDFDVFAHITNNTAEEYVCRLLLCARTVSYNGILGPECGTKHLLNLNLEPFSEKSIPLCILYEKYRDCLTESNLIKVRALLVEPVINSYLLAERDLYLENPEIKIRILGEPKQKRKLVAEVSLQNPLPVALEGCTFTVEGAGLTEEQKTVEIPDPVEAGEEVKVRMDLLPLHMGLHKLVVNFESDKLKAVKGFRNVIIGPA


Key:
[1] = biological target: T1, human transglutaminase type 2 (TG2); assay: cell-based or functional assay
[2] = biological target: T1, human transglutaminase type 2 (TG2); assay: cell-based or functional assay; remark: listed apart in the source
[3] = biological target: T1, human transglutaminase type 2 (TG2); assay: SPR (Biacore T200), antibody captured on anti-human IgG1 Fc chip, TG2 injected; +Ca2+
Description: (§1) Recombinant cynomolgus monkey TG2 was obtained from Trenzyme. Surface plasmon resonance (SPR) was measured on a Biacore T200 instrument (GE Healthcare). CM5 chips (GE Healthcare cat. no.: BR-1006-68) were coated with monoclonal mouse anti-human IgG1 (Fc) (MAH) antibody (GE Healthcare cat. no.: BR-1008-39) by amine-coupling as described in the manufacturers instructions. HBS-EP+ buffer (0.01 M HEPES, 0.15 M NaCl, 3 mM EDTA, 0.05% v/v Surfactant P20) and HBS-P+ buffer (0.01 M HEPES, 0.15 M NaCl, 0.05% Surfactant P20) were purchased from GE Healthcare as 10× stocks (cat. nos.: BR-1006-69 and BR-1006-71). Calcium Chloride solution was obtained from Sigma Aldrich (cat. no.:21115).
(§2) The method employed to determine the affinity of the anti-TG2 antibodies involved the capture of the chimeric or humanised antibodies on a MAH coated CM5 chip, followed by the injection of a series of TG2 samples in running buffer. The running buffer was 1×HBS-P+ containing 1 mM CaCl_2, or 1×HBS-EP+ for calcium-free experiments. Antibody capture was carried out for a contact time of 120 seconds at a flow rate of 10 μl/min resulting in the capture of approximately 40-80 RU. TG2 was injected over the immobilised antibody at concentrations ranging from 25 nM to 400 nM with a contact time up to 600 seconds at a flow rate of 30 μl/min. Dissociation of TG2 was typically measured for up to 5400 seconds (1.5 hours). Regeneration of the chip was then performed using 3 M MgCl_2, for a contact time of 60 seconds at a flow rate of […], followed by a 300 s stabilisation period before the next sample. For each of human and cynomolgus monkey TG2, at least 5 injections at a variety of concentrations were performed in at least two separate experiments.
(§3) Kinetic data were exported from the Biacore T200 Evaluation Software and analysed using GraphPad Prism, where the association phases and dissociation phases were analysed separately using a one phase association model and one-phase exponential decay model respectively. Association rates ($kon$) were calculated for each curve individually, and dissociation rates ($koff$) values from the long dissociation phase data collected. Where $koff$ values were calculated to be $<1\times10^-5$ s^-1, values were set at 1×10^-5 for analysis, as rates slower than this could not be estimated accurately.

[4] = biological target: T1, human transglutaminase type 2 (TG2); assay: SPR (Biacore T200), antibody captured on anti-human IgG1 Fc chip, TG2 injected; -Ca2+
Description: as §1, §2, §3

cynomolgus monkey TG2 = biological target: T2, cynomolgus monkey TG2; assay: as above
Description: as §1, §2, §3

| Binder | IC50, 3H-putrescine incorporation assay [1] | half-maximal concentration of enzymatic inhibition, headed EC50 nM on the sheet, IC50 in the legend [panel A] [2] | Kd [3] | koff [3] | kon [3] | Kd [4] | koff [4] | kon [4] | Kd (cynomolgus monkey TG2) | koff (cynomolgus monkey TG2) | kon (cynomolgus monkey TG2) | half-maximal concentration of enzymatic inhibition, headed EC50 nM on the sheet, IC50 in the legend [panel B] [2] |
| --- | --- | --- | --- | --- | --- | --- | --- | --- | --- | --- | --- | --- |
| AB1 murine monoclonal antibody (antibody, V domains shown, Mouse hybridoma IgG; heavy chain amplified with constant region primer MHCG1, kappa light chain; also called mAB003) VH: EVQLVESGGGLVKPGGSLKLSCAASGFTLSSSAMSWVRQTPDRRLEWVATISVGGGKTYYPDSVKGRFTISRDNAKNTLYLQMNSLRSEDTAMYYCAKLISLYWGQGTTLTVSS VL: DIKMTQSPSSMYASLGERVTITCKASQDINSYLTWFQQKPGKSPKTLIYRTNRLFDGVPSRFSGSGSGQDFFLTISSLEYEDMGIYYCLQYDDFPYTFGGGTKLEIK | 1.1e-05 mg/ml of IgG (to inhibit 1 ng of TG2) | 9.5 nM | – | – | – | – | – | – | – | – | – | – |
| JE12 murine monoclonal antibody (antibody, V domains shown, Mouse hybridoma IgG; heavy chain amplified with primer MHCG1, kappa light chain) VH: EVQLQQSGPELVKPGASVKMSCKASGYRFTSYVMHWVKQKSGQGLEWIGYINPYNDGAKYNEKFKGKATLTSDKSSSTAYMELSSLTSEDSAVYYCARLSSDYWGQGTTLTVSS VL: DVLMTQNPLSLPVSLGDQASISCRSSQSIEHINGNTYLEWYLQKPGQSPKFLIYKVSNRFSGVPDRFSGSGSGTDFTLRISRVEAEDLGIYYCFQGSHVPFTFGGGTKLEIK | 0.000123 mg/ml of IgG (to inhibit 1 ng of TG2) | – | – | – | – | – | – | – | – | – | – | – |
| DC1 murine monoclonal antibody (antibody, V domains shown, Mouse hybridoma IgG; heavy chain amplified with primer MHCG1, kappa light chain; also called mDC001) VH: EVQLVESGGGLVKPGGSLKLSCAASGFTLSTHAMSWVRQTPEKRLEWVATISSGGRSTYYPDSVKGRFTISRDNVKNTLYLQLSSLRSEDTAVYFCARLISTYWGQGTTLTVSS VL: DITMTQSPSSIYASLGERVTITCKASQDINSYLTWFQQKPGKSPKILIYLVNRLVDGVPSRFSGSGSGQDYALTISSLEYEDMGIYYCLQYDDFPYTFGGGTKLEIK | 1.1e-05 mg/ml IgG per ng of recombinant TG2 | – | – | – | – | – | – | – | – | – | – | – |
| cBB001 chimeric antibody (murine BB7 variable regions) (antibody, human IgG1, V domains shown, also called chimeric BB7) VH: AVQLVESGGGLVKPGGSLKLSCAASGIIFSSSAMSWVRQTPEKRLEWVATISSGGRSTYYPDSVKGRFTVSRDSAKNTLYLQMDSLRSEDTAIYYCAKLISPYWGQGTTLTVSS VL: AIKMTQSPSSMYASLGERVIITCKASQDINSYLTWFQQKPGKSPKTLIYLTNRLMDGVPSRFSGSGSGQEFLLTISGLEHEDMGIYYCLQYVDFPYTFGGGTKLEIK | – | – | < 0.05 nM | < 1e-05 s⁻¹ | 210000 M⁻¹ s⁻¹ | < 0.07 nM | < 1e-05 s⁻¹ | 150000 M⁻¹ s⁻¹ | < 0.05 nM | < 1e-05 s⁻¹ | 190000 M⁻¹ s⁻¹ | – |
| cDH001 chimeric antibody (murine DH2 variable regions) (antibody, human IgG1, V domains shown) VH: not shown VL: QIVLTQSPAIMSASPGEKVTMTCSASSSVSYMYWYQQKPGSSPRLLIYDTSNLASGVPVRFSGSGSGTSYSLTISRMEAEDAATFYCQQWSSSPLTFGAGTKLELK | – | – | 0.64 nM | 1.8e-05 s⁻¹ | 28000 M⁻¹ s⁻¹ | 23 nM | 0.00049 s⁻¹ | 21000 M⁻¹ s⁻¹ | 2.4 nM | 6.3e-05 s⁻¹ | 26000 M⁻¹ s⁻¹ | – |
| cDD9001 chimeric antibody (murine DD9 variable regions) (antibody, human IgG1, V domains shown) VH: not shown VL: QIVLTQSPAIMSASPGEKVTMTCSASSSVDYMYWYQQKPGSSPRLLIYDTSNLASGVPVRFSGSGSGTSYSLTISRMGAEDAATYYCQQWNSSPLTFGAGTKLELK | – | – | 0.43 nM | 1.3e-05 s⁻¹ | 30000 M⁻¹ s⁻¹ | 3.1 nM | 7.1e-05 s⁻¹ | 23000 M⁻¹ s⁻¹ | 0.89 nM | 4.1e-05 s⁻¹ | 46000 M⁻¹ s⁻¹ | – |
| BB7 murine monoclonal antibody (antibody, V domains shown, Mouse hybridoma IgG; heavy chain amplified with primer MHCG1, kappa light chain; also called mBB001) VH: AVQLVESGGGLVKPGGSLKLSCAASGIIFSSSAMSWVRQTPEKRLEWVATISSGGRSTYYPDSVKGRFTVSRDSAKNTLYLQMDSLRSEDTAIYYCAKLISPYWGQGTTLTVSS VL: AIKMTQSPSSMYASLGERVIITCKASQDINSYLTWFQQKPGKSPKTLIYLTNRLMDGVPSRFSGSGSGQEFLLTISGLEHEDMGIYYCLQYVDFPYTFGGGTKLEIK | – | – | – | – | – | – | – | – | – | – | – | 0.752 nM |
